Assay [1] concerns the target T1, human IL4 (human, UniProt P05112 25-153, biotinylated in the SPR and competition assays (sites not given)).
T1 sequence: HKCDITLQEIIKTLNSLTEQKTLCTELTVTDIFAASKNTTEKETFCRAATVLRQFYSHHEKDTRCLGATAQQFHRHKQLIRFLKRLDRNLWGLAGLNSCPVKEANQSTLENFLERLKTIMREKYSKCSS
In words: cell-based or functional assay.

The target of assay [2] is T1, human IL4. The assay is described as follows: SPR ProteOn, biotin-IL4 on neutravidin chip, 1:1 fit. As to the method:
Purified binders selected as “hits” were ranked by their affinity on a ProteOn XPR-36 instrument (Bio-Rad). ProteOn is an optical biosensor instrument that measures protein-protein interactions in real time, based on Surface Plasmon Resonance technology similar to Biacore (GE). A rapid experimental protocol was performed as follows: On a GLC sensor chip (Bio-Rad), Neutravidin (Thermo Scientific) was covalently immobilized to a density of >5000 RU using amine coupling chemistry as described by the manufacturer. On one flow cell, biotinylated IL4 (Peprotech) was immobilized to a level of 250 RU, while another flow cell was used as reference, with neutravidin immobilized only. […] The retrieved values were used to rank the AR proteins by their affinity.

Assay [3] addresses T1, human IL4. In words: Luminex competition, 67 pM biotin-IL4 binding to IL4RA-Fc beads. As to the method: For biotinylation of IL4, recombinant human IL4 (Peprotech) was biotinylated at a 4:1 ratio using EZ-Link NHS-LC-Biotin (Pierce, #21336) for 2 hours at RT. The protein was dialyzed in PBS overnight to remove excess biotinylation reagent. Competition binding for cynomologous IL4 (SEQ ID NO: 5) was performed using the isolated protein biotinylated in the same manner.
AR protein inhibition of IL4 binding to IL4 RA was assessed using IL4 RA-Fc (R&D Systems), comprising the Gly24-His232 which represents the ECD (SEQ ID NO: 5) fused to a human IgGl-Fc and therefor a disulfide linked homodimer. The protein was conjugated to carboxylated Luminex microspheres according to the manufacturer's protocol. For neutralization experiments, 5000 IL4RA-Fc conjugated beads in 50 μl were added to each well of a 96-well filter plate (Millipore). Biotinylated human IL4 was mixed with an appropriate dilution of AR protein in Luminex Assay Buffer (PBS, 1% BSA, pH 7.4) to give a final concentration of 67 pM IL4. The plate was incubated for 1 hour at RT in the dark on a plate shaker, set to shake vigorously to avoid bead aggregation. The plate was washed twice with 150 μl of wash buffer (PBS, 0.1% BSA, pH 7.4, 0.05% Tween-20) using a vacuum manifold followed by the addition of 50 μl of Streptavidin PE at 25 μg/ml and incubated at RT for 20 minutes. The plates were washed again and 150 μl of sheath fluid was added and the plate was placed on the shaker for 5 minute. Plates were read using a Luminex® 100 system; data were plotted as a function of AR protein concentration. IC₅₀ values were determined by fitting the data to the equation for sigmoidal dose response using PRISM software (GraphPAD PRISM) (Table 6).

Assay [4] addresses T2, human IL13 (human, UniProt P35225 35-146, biotinylated in the SPR assays (sites not given)). In words: cell-based or functional assay.
The next assay concerns the target cyno IL13 (cynomolgus monkey, UniProt Q0PW92 21-132). The assay is described as follows: cell-based or functional assay.
Assay [5] addresses T2, human IL13. In words: SPR BIAcore, biotin-IL13 on SA chip, global fit. As to the method:
Recombinant human IL13 (Peprotech) was minimally biotinylated on ice using sulfo-NHS-LCLC-Biotin and desalted into the experimental running buffer containing 10 mM HEPES, 150 mM NaCl, pH 7.4, 0.01% Tween-20, and 0.1 mg/mL BSA. Biotinylated IL13 was captured at three different surface densities (from about 150, 50, and 25 RU) onto three different BIAcore SA (streptavidin) sensor chips. Each binding protein sample was tested at 40 nM as the highest concentration in a 3-fold dilution series over the three different density IL13 surfaces. The dissociation phase for the highest concentration of the binding protein sample was monitored for one hour. The response data from each of the different density surfaces was globally fitted in order to extract estimates of the kinetic and affinity constants which are provided in Table 7 below.

The target in another assay is T3, human IL13 R130Q (human, UniProt P35225 35-146, biotinylated (sites not given)).
T3 construct: Peprotech; also called IL13R13Q; R111Q
T3 sequence (P35225 35-146 limits assumed, stated change not applied): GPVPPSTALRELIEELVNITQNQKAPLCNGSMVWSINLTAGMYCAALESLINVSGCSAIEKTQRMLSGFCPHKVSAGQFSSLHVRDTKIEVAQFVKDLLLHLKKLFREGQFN
In words: Luminex competition, 80 pM biotin-IL13 R130Q binding to IL13Ra2-Fc beads. As to the method: Binding protein inhibition of IL13 binding to Rα2 was assessed using IL13Rα2-Fc (R&D Systems) conjugated to carboxylated Luminex microspheres according to the manufacturer's protocol. For biotinylation of IL13, recombinant human IL13 R130Q (Peprotech) was biotinylated at a 4:1 ratio using EZ-Link NHS-LC-Biotin (Pierce, #21336) for 2 hours at RT. The protein was dialyzed in PBS overnight to remove excess biotinylation reagent. For neutralization experiments, 5000 IL13 Rα2-Fc conjugated beads in 50 μl were added to each well of a 96-well filter plate (Millipore). 50 μl of biotinylated human IL13 at 1 ng/ml (80 pM) was mixed with an appropriate dilution of binding protein in Luminex Assay Buffer (PBS, 1% BSA, pH 7.4). The plate was incubated for 1 hour at RT in the dark on a plate shaker, set to shake vigorously to avoid bead aggregation. The plate was washed 3 times with 150 μl of wash buffer (PBS, 1% BSA, pH 7.4, 0.05% Tween-20) using a vacuum manifold followed by the addition of 50 μl of Streptavidin PE at 25 μg/ml and incubated at RT for 20 minutes. The plates were washed again and 100 μl of sheath fluid was added and the plate was placed on the shaker for 1 minute. Plates were read using a Luminex® 100 system; data were plotted as a function of binding protein concentration. IC₅₀ values were determined by fitting the data to the equation for sigmoidal dose response using PRIZM software (GraphPAD PRIZM).

Changes are numbered by the printed parent chain.

T2 sequence (P35225 other isoform, or with tags, fused parts or gaps limits assumed): as the sequence (P35225 35-146 limits assumed, stated change not applied) above, with Q110R counted along it
cyno IL13, sequence (Q0PW92 entry or part of it): as the sequence (P35225 35-146 limits assumed, stated change not applied) above, with G1S, R10K, M42V, S67N, H83R, L100V counted along it

B1: C06_6E9 (designed binder)
chain: DLGKKLLEAARAGQDDEVRILMANGADVNAIDSDGTTPLHLAAMDGHLEIVEVLLKYGADVNAVDWNGDTPLHLAAVDGHLEIVEVLLKYGADVNAQDNLGDTPLHLAAYYGHLEIVEVLLKHGADVNASDFHGITPLHLAAFSGHLEIVEVLLKYGADVNAQDKFGKTAFDISIDNGNEDLAEILQKLN
notes: ankyrin repeat protein; His-tagged, IMAC-purified
What is called Kd is the equilibrium constant for the complex coming apart. Read a high Kd as weaker binding. Usually koff stands for a measure of how fast the partners let go of each other. By kon is commonly meant the second-order rate constant of association. One may read the IC50 as the point on the concentration scale where inhibition reaches its midpoint. A lower IC50 goes with greater potency in that assay. In the case of B1, in the assay with human IL4 [1], the “A549 TARC Inhibition IC50” value turned out to be 0.131 nM, the “HEK Stat6 Inhibition IC50” value was found to be 0.0006 nM and the “Type 1 Complex inhibition IC50” value was 0.0004 nM. In the assay with human IL4 [2], the affinity, expressed as Kd, was 0.0749 nM; the koff stood at 7.16e-05 s⁻¹; the kon turned out to be 956000 M⁻¹ s⁻¹. Moreover, the IC50 in the assay with human IL4 [3] is 0.0076 nM.

B2: 7D2 (designed binder)
chain: DLGKKLLEAARAGQDDEVRILMANGADVNAFDDFGSTPLHLAARSGHLEIVEVLLKHGADVNAHDMIGDTPLHLAAYHGHLEIVEVLLKYGADVNAKDTSGTTPLHLAADSGHLEIVEVLLKHGADVNAQDKFGKTAFDISIDNGNEDLAEILQKLN
notes: N-Cap-(AR)3-C-Cap
B2: in the assay with human IL13 [4], the “STAT6 Phospho IC50” value is 0.0048 nM and the “TARC expression IC50” value was found to be 0.0146 nM. Besides, the “Cyno IL13 STAT6 IC50” value with cyno IL13 turned out to be 0.307 nM. In the assay with human IL13 [5], this molecule registered a Kd of 0.0955 nM, an off-rate (koff) of 0.000292 s⁻¹ and a kon of 3.06e+06 M⁻¹ s⁻¹. The IC50 in the assay with human IL13 R130Q worked out at 0.0083 nM.

B3: C06_53E9 (designed binder)
chain: DLGKELLEAASAGQDDEVHILMANGADVNASDKDGSTPLHLAAVYGHLEIVEVLLKYGADVNAEDMNGYTPLHLAAADGHLEIVEVLLKYGADVDAKDRTGWTPLHLAGEFGHLEIVEVLLKYGADVNAQDKFGKTAFDISIDNGNEDLAEILQKLN
notes: as for B1
Consider B3, for which the “HEK Stat6 Inhibition IC50” value with human IL4 [1] is 0.0143 nM. In the assay with human IL4 [2], this molecule returned a Kd of 0.326 nM, a koff of 0.000281 s⁻¹ and a kon of 862000 M⁻¹ s⁻¹. For the same molecule, in the assay with human IL4 [3], the half-inhibitory concentration (IC50) worked out at 0.0178 nM.

B4: C06_44C12 (designed binder)
chain: DLGKKLLEAASAGQDDEVHILMANGADVNALDDSGYTPLHLAAEDGHLEIVEVLLKHGADVNAADRMGDTPLHLAAFVGHLEIVEVLLKYGADVNAVDLAGVTPLHVAAFYGHLEIVEVLLKYGADVNAQDKFGKTAFDISIDNGNEDLAEILQKLN
notes: as for B1
Turning to B4, in the assay with human IL4 [1], the “A549 TARC Inhibition IC50” value amounted to 0.231 nM, the “HEK Stat6 Inhibition IC50” value is 0.0011 nM and the “Type 1 Complex inhibition IC50” value is 0.0017 nM. In the assay with human IL4 [2], this molecule registered a Kd of 0.0436 nM, an off-rate constant (koff) of 3.77e-05 s⁻¹ and a kon of 864000 M⁻¹ s⁻¹. In addition, the IC50 with human IL4 [3] worked out at 0.0203 nM.

B5: C06_48F3 (designed binder)
chain: B4 chain with S11R, H19R, L31F, Y36L, E44D
notes: as for B1
Take B5: in the assay with human IL4 [1], the “HEK Stat6 Inhibition IC50” value was 0.0047 nM. In the assay with human IL4 [2], the Kd is 0.174 nM, the koff is 0.000151 s⁻¹ and the kon turned out to be 872000 M⁻¹ s⁻¹. In the assay with human IL4 [3], the IC50 came to 0.0197 nM.

B6: C06_44F6 (designed binder)
chain: B4 chain with K5E, S11R, A64M, R66N, M67I, D69N, P71S, V78D, Y123H
notes: as for B1
B6: in the assay with human IL4 [1], the “A549 TARC Inhibition IC50” value is 0.142 nM, the “HEK Stat6 Inhibition IC50” value was 0.0064 nM and the “Type 1 Complex inhibition IC50” value was determined as 0.0249 nM. In the assay with human IL4 [2], the affinity, expressed as Kd, was 0.0967 nM; the koff is 0.0002 s⁻¹; the kon stood at 2.07e+06 M⁻¹ s⁻¹. Also, the concentration for half-maximal inhibition (IC50) in the assay with human IL4 [3] is 0.0158 nM.

B7: C06_53G6 (designed binder)
chain: NLGKKLLEAARAGQDDEVRILMANGADVNATDDWGDTLLHLAATDGHLEIVEVLLKYGADVNANDAIGDTPLHLAALYGHLEIVEVLLKYGADVNATDLHGFTPLHLAAFWGHLEIVEVLLKHGADVNAQDKFGKTAFDISIDNGNEDLAEILQKLN
notes: as for B1
As for B7, in the assay with human IL4 [1], the “A549 TARC Inhibition IC50” value worked out at 0.135 nM, the “HEK Stat6 Inhibition IC50” value was 0.0021 nM and the “Type 1 Complex inhibition IC50” value came to 0.0009 nM. In the assay with human IL4 [2], this molecule showed a Kd of 0.0734 nM, an off-rate constant (koff) of 5.11e-05 s⁻¹ and a kon of 696000 M⁻¹ s⁻¹. The IC50 in the assay with human IL4 [3] is 0.0161 nM.

B8: 5D12 (designed binder)
chain: DLGKKLLEAARAGQDDEVRILMANGADVNAVDDYGSTPLHLAARQGHLEIVEVLLKNGADVNADDFIGDTPLHLAAFKGHLEIVEVLLKNGADVNASDITGETPLHLAATAGHLEIVEVLLKHGADVNAQDKFGKTAFDISIDNGNEDLAEILQKLN
notes: N-Cap-(AR)3-C-Cap
With B8, in the assay with human IL13 [4], the “STAT6 Phospho IC50” value came out at 0.0054 nM and the “TARC expression IC50” value was found to be 0.0341 nM. In the assay with cyno IL13, the “Cyno IL13 STAT6 IC50” value was determined as 0.159 nM. In the assay with human IL13 [5], this molecule displayed a Kd of 0.168 nM, a dissociation rate constant (koff) of 0.000184 s⁻¹ and an association rate constant (kon) of 1.1e+06 M⁻¹ s⁻¹. This molecule returned an IC50 with human IL13 R130Q of 0.0102 nM.

B9: 5H7 (designed binder)
chain: DLGKKLLEAARAGQDDEVRILMANGADVNAADMYGTTPQHLAARTGHLEIVEVLLKYGADVNAADFLGDTPLHLAAYHGHLEIVEVLLKHGADVNASDITGETPLHLAAHLGHLEIVEVLLKYGADVNAQDKFGKTAFDISIDNGNEDLAEILQKLN
notes: N-Cap-(AR)3-C-Cap
Consider B9, for which, in the assay with human IL13 [4], the “STAT6 Phospho IC50” value came out at 0.0429 nM and the “TARC expression IC50” value is 0.132 nM. Besides, in the assay with cyno IL13, the “Cyno IL13 STAT6 IC50” value was determined as 0.527 nM. Moreover, in the assay with human IL13 [5], the Kd came out at 0.263 nM, the koff amounted to 0.000894 s⁻¹ and the kon worked out at 3.4e+06 M⁻¹ s⁻¹. The IC50 in the assay with human IL13 R130Q was found to be 0.158 nM.

B10: C06_43G2 (designed binder)
chain: DLGKKLLEAARAGQDDEVRILMANGADVNAKDVTGETPLHLASWEGHLEIVEVLLKHGADVNAQDLFGITPLHLAAATDGHLEIVEVLLKNGADVNATDSNGFTPLHLAASYGHLEIVDVLLKNGADVNAHDFDGFTPLHLAASWGHLEIVEVLLKYGADVNAQDKFGKTAFDISIDNGNEDLAEILQKLN
notes: as for B1
Regarding B10, in the assay with human IL4 [1], the “A549 TARC Inhibition IC50” value worked out at 0.262 nM, the “HEK Stat6 Inhibition IC50” value turned out to be 0.0016 nM and the “Type 1 Complex inhibition IC50” value amounted to 0.0008 nM. For the same molecule, in the assay with human IL4 [2], binding was characterised by a dissociation constant (Kd) of 0.0427 nM, the koff was determined as 5.98e-05 s⁻¹ and the kon was 1.4e+06 M⁻¹ s⁻¹. Also, the IC50 with human IL4 [3] worked out at 0.0235 nM.

The values are drawn from patent US20120277143A1 (Janssen / Centocor, published 2012).
